{"source": "the DeepSol protein solubility set", "data": [{"test": "soluble on expression in E. coli; label from the status in PepcDB or PDB records", "values": [{"sequence": "MRGSHHHHHHTDPALRASKVTPQPKIGFVSLGCPKNLVDSERILTELRTEGYDVVPSYDDADMVIVNTCGFIDSAVQESLEAIGEALNENGKVIVTGCLGAKEDQIREVHPKVLEITGPHSYEQVLEHVHHYVPKPKHNPFLSLVPEQGVKLTPRHYAYLKISEGCNHRCTFCIIPSMRGDLVSRPIGEVLSEAKRLVDAGVKEILVISQDTSAYGVDVKHRTGFHNGEPVKTSMVSLCEQLSKLGIWTRLHYVYPYPHVDDVIPLMAEGKILPYLDIPLQHASPRILKLMKRPGSVDRQLARIKQWREICPELTLRSTFIVGFPGETEEDFQMLLDFLKEARLDRVGCFKYSPVEGADANALPDQVPEEVKEERWNRFMQLQQQISAERLQEKVGREILVIIDEVDEEGAIGRSMADAPEIDGAVYLNGETNVKPGDILRVKVEHADEYDLWGSRVGLCGR", "soluble on expression in E. coli": "soluble"}, {"sequence": "AHHHHHHGSKAIILAAGKGERLRPLTDDRPKVVLKIANKPIISYVLENLDPFVDEFIIVVKYMKEKVIDLLGDEFRGKPITYVEQGEEEGTAAAVYSVKEFIESNEEFFVVNGDLYFEPDAVKGLLHVFKKEKGDAGIVVKEFENLSQYGMVEVENGKVKGIIEKPGNVKGYANLGIYIFKSDVFDYIENTEISERGEYEITDTINLMIKDGKSVVYYNYEGFWSDIGRPWDLLEVNEYILKTKLKHEIRGVVEEGATIIPPVEIGEGTIVRAGSYIIGPVKIGKNCRIGPNCYIRPYTSIGDNCHIGNAVEVKNSIIMDNSNAPHLNYVGDSIIGENTNLGAGTITANLRHDKGTIKVEVKGKLEDSGRRKLGAIIGHNVKVGINVTIYPGRKIGSNSFIGPGVIVDKNIPQNVLVTVKQEKKVIEK", "soluble on expression in E. coli": "soluble"}, {"sequence": "MGSDKIHHHHHHMKIKCIITDDEPIARKGLRGYIEKVDFLTLTGECEDAVQLNTILKTQEIDLLFLDIEMPEMTGIELLSNLTNPPKVIIVSAYEQYALKGYEFNVVDYLLKPVSFDRFIKSVNKIYDLLQTEQKEKNDYIFVKSNKLLKKILFKDILYIESMENYVVIQTVSCKEVVYTTLKQLNDSLPKDVFQQTHRSYIVNLEKVTAIDGNQLTLSSYKIPVARTFRDSIFNLILNNRLIIKS", "soluble on expression in E. coli": "not soluble"}, {"sequence": "RTHSGEKPYECYICHARFTQSGTMKMHILQKHTENVAKFHCPHCDTVIARKSDLGVHLRKQHSY", "soluble on expression in E. coli": "soluble"}, {"sequence": "MSLPTNPFISLFGRSPIGPMQQHIAKAHECAAGLLPFFRAVIAEDWAQVEQVQQDMVRLEQEADRLKKHVRMHLPKSLFLPVPRSDLLELLSVQDKVANRAKDIAGLMLGRRMRIPLPLQGQMLAYVQRSVDASAQALRVVNELNELLETGFGGRETSLVESMVEELEAIENDTDRIQVEVRRELFRLESELPPVDVMFLYQIIEWIGDVADRAQRVGNRLEQLLAREGHHHHHH", "soluble on expression in E. coli": "soluble"}, {"sequence": "MSSRLDQLVNKYNKSCENVSFAEHMILKDKYESLVIEHESLIKTLELLEKTHGFTVEDLVTKQKEALEKKEVIEKWENKFGEMEKKLKTVERSIEYIMSVDVQTGVDSGSANRPNVKNSYQRGIF", "soluble on expression in E. coli": "not soluble"}, {"sequence": "MDRVLSRADKERLLELLKLPRQLWGDFGRMQQAYKQQSLLLHPDKGGSHALMQELNSLWGTFKTEVYNLRMNLGGTGFQ", "soluble on expression in E. coli": "soluble"}, {"sequence": "MGHHHHHHSHMSAPIVDAPAAEIVYKIISSDGVVSKMSEKAVQQSKTLSNLIENLGYTIENIETRDPIPVTNVNGKTMAKVAEWCEKHKADAIPEDNMNVLKTLTIPEWDQKFLKIEDEALFDLILASNFLDIKGLMYFGCKTVSNMAKGKTTAELREIFGINTDEQDAAEETAQRAAAEVA", "soluble on expression in E. coli": "soluble"}, {"sequence": "MSIYLTAMKNYLEQQNSLNSSKPKALILVAGATGGAQEGFQALERLRESYEIIVVASQAALDLYGEENLKSLTGTAKIYQGKEFKIYDFLKVVTIVFLPVVSSNLVGKLAHGIYDEPLASLIFHAKLAGKPVIGVVDGALPDGDGFKSRGFTNPPPGLVKLINENIEKLRAQEIYLYKGKTILEKLSPYLGPQTAETSVVSSKTGVTLNKRVITREDLLELANQTITVSQKTIITDLAREYAVQNNIKINFAE", "soluble on expression in E. coli": "not soluble"}, {"sequence": "MAASGEEDMSELSPAAAPNLDWYEKPEETHAPEVDLETVIPPAQEPSNPAEPFCPRDLVPVVFPGPVSQEDCCQFTCELLKHILYQRHQLPLPYEQLKHFYRKAPQAEDTARKKAWLATEARNRKCQQALAELESVLSHLRDFFARTLVPQVLILLGGNALSPKEFYELDLSRLAPFGVDQGLNTAACLRRLFRAIFLADPFSELQTPPLMGTIVMVQGHRDCGEDWFQPKLNYRVPSRGHKLTVTLSCGRPSVPAMASEDYIWFQAPVTLKGFHE", "soluble on expression in E. coli": "not soluble"}, {"sequence": "MGPNHPCGYLPGRDARFTYVSPAYPLSPQSYRGLLEEGFRRSGNWVYRPCCIGCSACLPVRLPVHDFRLTRSHRRVIKRNADIDIRVSVARFDERQFQLYVRYLAARHPLEHHHHHH", "soluble on expression in E. coli": "not soluble"}, {"sequence": "MGSSHHHHHHSSGRENLYFQGHMAQLYFYYSAMNAGKSTALLQSSYNYQERGMRTVVYTAEIDDRFGAGKVSSRIGLSSPAKLFNQNSSLFDEIRAEHEQQAIHCVLVDECQFLTRQQVYELSEVVDQLDIPVLCYGLRTDFRGELFIGSQYLLAWSDKLVELKTICFCGRKASMVLRLDQAGRPYNEGEQVVIGGNERYVSVCRKHYKEALQVDSLTAIQERHRHD", "soluble on expression in E. coli": "soluble"}, {"sequence": "MFPLNDLSLKTQPVQLNKVTSNTESTIKQHELVSDDAIINELSSELVSCLGNGKFTPISEDSKLFNMLSEFKLLHSEYFEWGDYSLWFQDFSIYNKIGFIMIEKIRELVTHPFGINLEHHHHHH", "soluble on expression in E. coli": "not soluble"}, {"sequence": "MRMLRRLRRATVAAAVWLATVCLVASCANADPLGSATGSVKSIVVGSGDFPESQVIAEIYAQVLQANGFDVGRRLGIGSRETYILALKDHSIDLVPEYIGNLLLYFQPDATVTMLDAVELELYKRLPGDLSILTPSPASDTDTVTVTAATAARWNLKTIADLAPHSADVKFAAPSAFQTRPSGLPGLRHKYSLDIAPGNFVTINDGGGAVTVRALVEGTATAANLFSTSAAIPQNHLVVLEDPEHNFLAGNIVPLVNSRKKSDHLKDVLDAVSAKLTTAGLAELNAAVSGNSGVDPDQAARKWVRDNGFDHPVRQ", "soluble on expression in E. coli": "soluble"}, {"sequence": "MSLRVENLRSSTYRNGPTGLPNRARFSEDLDAVLLQRTADSAATAIAVDLCGSDYFRDMVKALGWDYADGYVALAYKRLISKLPAGTALYRLDTTTFAFMVTTADPLRLSALCSKISKGFVAPLEHQGIPHTAVASIGAVLLETSYGAADTLRSLTTSVDVAREHCLTWSLYEREGHHHHHH", "soluble on expression in E. coli": "not soluble"}, {"sequence": "MMAYKSLLTVLTDPKIAPATLAQLVALAEAQDAHAEALCLGVDRSQTGYYYAGANALILQETLNRANAEAEEVLTLAQDTLGKSGVRWSAESGVAQIADLGRHVAHRARFSDLVVLSRPYGEDRGSEAEPIVEAAMFEGHAPVLVVPDNAPPLKQPRTVLLGWNESVEAMRAIRLAMPFLRAADLVRIVVIDPPRHGPDRSDPGGLLSQMLARHGVKVEIDVLSKTMTRVSDILNRHATDTSADMLVMGAYGHSRFREAILGGATRNMLEQATVPVFMAH", "soluble on expression in E. coli": "not soluble"}, {"sequence": "GSRNHCPHLDSVGEITKEDLIQKSLGTCQDCKVQGPNLWACLENRCSYVGCGESQVDHSTIHSQETKHYLTVNLTTLRVWCYACSKEVFLDRKLGTQ", "soluble on expression in E. coli": "soluble"}, {"sequence": "MGMSSLRDLGLSEYEARAYRSLLETGPTTAKELSRASDVPMGRIYDVLNSLETYNLVRSQTASRPKKYVAVEPDTALDRLLEDKKRELQEKVGQYEEIVDDLSSQLESADPVEEPFWTAAVGPDNSLDLLLERLAAADDEIIMVGSAPARQVDILSGTERIVDELEAALERGVEVSLLVRPDLFESLPEEANREYYERLFHYDNYSARASPNIRTTFELLDGVEVCIEVPHPLGREETFGVIDMKDSDFTADISQAFEEHWAEAKPVGPP", "soluble on expression in E. coli": "not soluble"}, {"sequence": "MSLASTFKFLVTSDNHLGYQERDSRRGDDSFTTFEECLRAARLEHEVDAILLAGDFFHDNKPSLGCLARTSSLLRSYVLGDKPISFTLLSDPKRNFPTHPVPLANFQDPNINVALPIFMIHGNHDDPVGGTSSIDILSTAGLVNYFGHTSSLDDIVVEPVLLKKGDTYIALYGLGNVRDDRLHRCFRMKKLHFVQPKTEPGKDWFKILLFHQNRGVRSGGNMKCGIYETMLAGHGMDLVIWGNEHEQQMEPSPSEGFDIIQPGSTILTSLSEHECNPKKYGVLEVRGGSYRVTGFPLRSIRPVVRRTVELWRDNPGCRTLDAVEDFLRSVVEQMIEEAEEQVSRIPDDVLKFHPNIKFPIMRLAVDFTDPDSTTFPQPNINRFGQQYMDIVVNPSELLRPIKPKQVPRVASSASATGGEAPVVPVPRLNTSDIRTKVAEVFNANARDACSLLSESEVSAAVYAFAEKGERDAIDERICELLSKCQKSVWVSMRREGHHHHHH", "soluble on expression in E. coli": "soluble"}, {"sequence": "MGSDKIHHHHHHLAVMPFSPDQIIRPEILALSAYHVPPACGMIKLDAMENPYPLPPELRDEIAKLAGETPVNRYPDPDAAALKAALREALSIPDGMDIMLGNGSDEIIQIIALACGKPGAVLMSVEPAFVMFRMIATFASMNYVGVPLHPDFSLDAEAMLAAIARYQPAVIFIAYPNNPTGNLFDAVEISRIIDAAPGVVVVDEAYHAFADASFMDKLAHHPNLLLMRTLSKLGMAGLRLGLLAGKPEWLRQLEKLRLPYNVGIVTQRIAEKLLQHRDVLLQQAAAIKLERSSMSRRLAELEGIEVFPTDANFILFRLNQDHKATQVFQELKQRGILVKNLDGAHPLLKNCLRVTVGMPDENAQFLEVLQTLLVKVEAKA", "soluble on expression in E. coli": "not soluble"}, {"sequence": "SDNLSSEEIQQRAHQITDESLESTRRILGLAIESQDAGIKTITMLDEQKEQLNRIEEGLDQINKDMRETEKTLTELNKCCGLCVCPCNRTKNFESGKAYKTTWGDGGENSPCNVVSKQPGPVTNGQLQQPTTGAASGGYIKRITNDAREDEMEENLTQVGSILGNLKDMALNIGNEIDAQNPQIKRITDKADTNRDRIDIANARAKKLIDS", "soluble on expression in E. coli": "soluble"}, {"sequence": "MPLPSFLEVYEGLISTSSISSTDARWDEGNEQVIAKLADWLSALGFSIQIEQVAPNKQNLIAKLGSGEGGLLLAGHSDTVPFDEGRWNYNPHALTQVNNRFYGLGTADMKGFFAFIYEAVKNVDWSKQTKPLYVLATCDEETTMLGARHFTENAPFKPDYCIIGEPTSLVPIRAHKGHVANAIRVTGKSGHSSNPALGVNAIEIMHEVLFALMQLRDRLIKEYHHPGFEIPTPTLNLGHIHGGDSPNRICGCCELHYDVRPLPGISLDGLDNLMHDALREVQQKWPGRIELVPLHDPIPGYECAHDHPFIHGISEICEQEAQTVNYCTEAPFLQQVCPTLVLGPGSIDQAHQPDEFLAFEFIDPTVRVLSRAMQKYCF", "soluble on expression in E. coli": "soluble"}, {"sequence": "MEKHPGKLFYRLSRLAPGDALPLKRGPKAKVYANPLETQALPPFRQDGGPPLFRAMAHLRPLLPEVGASLTLKDLSQVLYPLAEREGRRGFPSAGEAYPLEAYLVVRRVEGVFPGVYHYFPREHQLFQIASKVEEAAWAEALMGVALDRAAVLLVLTLLPERSEALFGLRGYRYALLEAGYAAGLVLLAAVGQGLAAYPAETFHDEGVARLLGLPEGEYPGVVVVLGR", "soluble on expression in E. coli": "soluble"}, {"sequence": "MGSDKIHHHHHHMANVTPDLVKALFVGFGKNFKDGLAKAPSQYTEIATVVKSTTASNTYAWLGQMPGLTEWIGDRTLTAIQSHGYSIVNKKWANGVEIQRTDIEDDNVGVYSPLIEELGRAAGEKADELVFGALTAGFKTACYDGQYFFDTDHPVGANVDGTNQKSVSNITDDSTGVTEANAWYLLDCSRSLKPIIYQERKAPTPAQITDANDEKVFMKDVFTYGVDSRSNVGYGFWQMAHAVKGKLTAENLWKAIEAMRAVRGDGDKRLAIRPTHIVVPPSLAQAATKLLERELRAEDGVAVDNEFKRMNLKLIVGDYL", "soluble on expression in E. coli": "not soluble"}]}]}
